The target in the assay is HIV-1 BaL envelope (Env, gp120-gp41) on HIV-1 BaL pseudovirions (HIV-1 BaL, Env clone BaL.01) (UniProt Q2MKA9). As to the kind of experiment: two-color fluorescence correlation spectroscopy (FCS).

Substance “mAb b12 (IgG), Alexa 647-labelled (antibody)” yielded a percent of mAb virion-bound (slower diffusion coefficient) of 42%.
